Measured values reported in patent US20090275511A1 (IPSEN PHARMA S A S, published 2009).
Numbered stars: 1 amine (or outer) side, 2 acyl side, 3 side chain; on linkers, the order of the positions; unused ones are H or OH. Square brackets hold non-standard residues; d marks the D form. Glu(NH-hexyl) = N5-hexyl-L-glutamine (glutamic acid gamma-hexylamide), CCCCCCNC(=O)CC[C@H](N[*:1])C(=O)[*:2]; 1‑Apc = not defined here; Aib = CC(C)(N)C(=O)O

Biological target: T1, human GH secretagogue receptor (human, UniProt Q92847 1-366)
T1 construct: whole, on cells; the Ca2+ assay used the whole cells; also called hGHS-R; ghrelin receptor
T1 sequence (Q92847 whole entry): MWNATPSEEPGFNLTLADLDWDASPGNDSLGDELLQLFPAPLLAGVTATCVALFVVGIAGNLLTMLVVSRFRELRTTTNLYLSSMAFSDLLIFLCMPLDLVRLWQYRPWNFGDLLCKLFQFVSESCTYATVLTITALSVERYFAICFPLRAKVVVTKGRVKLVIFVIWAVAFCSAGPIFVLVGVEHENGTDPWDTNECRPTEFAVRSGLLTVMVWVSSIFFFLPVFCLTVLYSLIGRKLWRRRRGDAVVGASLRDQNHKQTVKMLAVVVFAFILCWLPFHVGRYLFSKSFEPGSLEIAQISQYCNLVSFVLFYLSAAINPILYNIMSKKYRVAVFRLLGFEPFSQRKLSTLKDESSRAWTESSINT
Experiment: competition with 0.05 nM (125I)ghrelin on membranes of CHO-K1 cells expressing hGHS-R, filtration
Experimental: The homogenates were washed twice by centrifugation (39,000 g/10 minutes) and the final pellets were resuspended in about 50 mM Tris-HCl containing 2.5 mM MgCl₂ and 0.1% bovine serum albumin (BSA). For the selected assay, aliquots of approximately 0.4 ml were incubated with 0.05 nM (¹²⁵I)ghrelin (˜2000 Ci/mmol; Perkin Elmer Life Sciences®, Boston, Mass., U.S.A.) with and without 0.05 ml of unlabeled competing test peptide.

B1: (Ac-Inp^1, Aib^2,10, Glu(NH-hexyl)^3)hGhrelin(1-28)-NH2 (peptide)
peptide: XXEFLSPEHXRVQQRKESKKPPAKLQPR
HELM: PEPTIDE1{[ac].[O=C(C1CCN([*:1])CC1)[*:2]].[Aib].[CCCCCCNC(=O)CC[C@H](N[*:1])C(=O)[*:2]].F.L.S.P.E.H.[Aib].R.V.Q.Q.R.K.E.S.K.K.P.P.A.K.L.Q.P.R.[am]}$$$$V2.0
SMILES: CCCCCCNC(=O)CC[C@H](NC(=O)C(C)(C)NC(=O)C1CCN(C(C)=O)CC1)C(=O)N[C@@H](Cc1ccccc1)C(=O)N[C@@H](CC(C)C)C(=O)N[C@@H](CO)C(=O)N1CCC[C@H]1C(=O)N[C@@H](CCC(=O)O)C(=O)N[C@@H](Cc1c[nH]cn1)C(=O)NC(C)(C)C(=O)N[C@@H](CCCNC(=N)N)C(=O)N[C@H](C(=O)N[C@@H](CCC(N)=O)C(=O)N[C@@H](CCC(N)=O)C(=O)N[C@@H](CCCNC(=N)N)C(=O)N[C@@H](CCCCN)C(=O)N[C@@H](CCC(=O)O)C(=O)N[C@@H](CO)C(=O)N[C@@H](CCCCN)C(=O)N[C@@H](CCCCN)C(=O)N1CCC[C@H]1C(=O)N1CCC[C@H]1C(=O)N[C@@H](C)C(=O)N[C@@H](CCCCN)C(=O)N[C@@H](CC(C)C)C(=O)N[C@@H](CCC(N)=O)C(=O)N1CCC[C@H]1C(=O)N[C@@H](CCCNC(=N)N)C(N)=O)C(C)C
notes: Synthetic analog of human ghrelin(1-28)
Work on B1 yielded a Ki of 0.37 µM.

B2: (Ac-1-Apc^1, Aib^2,10, Glu(NH-hexyl)^3)hGhrelin(1-28)-NH2 (peptide)
peptide: Ac-[1‑Apc][Aib][Glu(NH-hexyl)]FLSPEH[Aib]RVQQRKESKKPPAKLQPR-NH2
modifications: reading uncertain
notes: as for B1
Work on B2 yielded a Ki of 0.04 µM.
